Groups on a side chain read outwards from the residue. No end group written: not given here. maleimide = maleimide group of MeO-PEG-maleimide, which reacts with the Cys side-chain thiol
B1: peptide 22 (dimer of a dimer, oxidised peptide 18) (peptide)
peptide: IEGPTLRQWLAARAGGGCGGGGIEGPTLRQWLAARA
modifications: also: homodimer: intermolecular disulfide between the linker Cys18 of two chains
B2: TMP C-C dimer (SEQ ID NO: 2) (peptide)
peptide: IEGPTLRQWLAARA
modifications: also: dimer of two TMP chains joined at C-termini through a Lys branch (structure only in a drawing)

Each molecule was assayed against T1, human mpl receptor (human, UniProt P40238 26-635) (assay: cell-based or functional assay). Conditions: not given.
T1 sequence (looked up): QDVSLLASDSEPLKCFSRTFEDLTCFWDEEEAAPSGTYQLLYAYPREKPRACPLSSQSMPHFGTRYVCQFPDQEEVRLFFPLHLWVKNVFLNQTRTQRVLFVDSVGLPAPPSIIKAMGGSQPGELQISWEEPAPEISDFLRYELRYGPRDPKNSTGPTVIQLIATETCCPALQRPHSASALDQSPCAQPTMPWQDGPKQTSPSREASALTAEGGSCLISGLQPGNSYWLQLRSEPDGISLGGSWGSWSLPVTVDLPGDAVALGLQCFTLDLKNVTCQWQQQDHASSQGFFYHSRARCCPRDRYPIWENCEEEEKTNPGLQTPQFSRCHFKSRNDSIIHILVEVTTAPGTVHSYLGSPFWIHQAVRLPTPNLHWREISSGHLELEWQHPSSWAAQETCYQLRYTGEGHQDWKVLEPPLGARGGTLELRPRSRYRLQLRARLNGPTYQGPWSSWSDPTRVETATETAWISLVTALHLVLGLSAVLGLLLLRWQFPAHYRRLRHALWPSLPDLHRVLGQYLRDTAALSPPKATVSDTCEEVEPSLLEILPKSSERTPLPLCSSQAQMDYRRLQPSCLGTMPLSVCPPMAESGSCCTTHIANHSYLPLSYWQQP

Molecule | Relative Potency (EC50), proliferation of murine 32D cells transfected with human mpl receptor
IEGPTLRQWLAARAGGGGGGGIEGPTLRQWLAARA [TMP-(Gly)n-TMP, n = 7] | 4 log units of activity (1 unit is approximately 10-fold)
IEGPTLRQWLAARAGGGGGGIEGPTLRQWLAARA [TMP-(Gly)n-TMP, n = 6] | 4 log units of activity (1 unit is approximately 10-fold)
IEGPTLRQWLAARAGGGGGGGGIEGPTLRQWLAARA [TMP-(Gly)n-TMP, n = 8] | 4.5 log units of activity (1 unit is approximately 10-fold)
B1 | 4 log units of activity (1 unit is approximately 10-fold)
IEGPTLRQWLAARAGGGCGGGGIEGPTLRQWLAARA [TMP-GGGCGGGG-TMP (SEQ ID NO. 16)] | 4 log units of activity (1 unit is approximately 10-fold)
IEGPTLRQWLAARAGGGKGGGGIEGPTLRQWLAARA [TMP-GGGKGGGG-TMP (SEQ ID NO. 14)] | 4 log units of activity (1 unit is approximately 10-fold)
IEGPTLRQWLAARAGGGNGSGGIEGPTLRQWLAARA [TMP-GGGNGSGG-TMP (SEQ ID NO. 19)] | 4 log units of activity (1 unit is approximately 10-fold)
IEGPTLRQALAARAGGGGGGGGIEGPTLRQALAARA [IEGPTLRQALAARA-GGGGGGGG-IEGPTLRQALAARA (SEQ ID NO. 13)] | 0.5 log units of activity (1 unit is approximately 10-fold)
IEGPTLRQWLAARAGGGKGGGGIEGPTLRQWLAARA (not fully specified (residue 18)) [TMP-GGGK(PEG)GGGG-TMP (SEQ ID NO. 17)] | 5 log units of activity (1 unit is approximately 10-fold)
B2 | 3.5 log units of activity (1 unit is approximately 10-fold)
IEGPTLRQWLAARAGGGGGIEGPTLRQWLAARA [TMP-(Gly)n-TMP, n = 5] | 4 log units of activity (1 unit is approximately 10-fold)
IEGPTLRQWLAARAGGIEGPTLRQWLAARA [TMP-(Gly)n-TMP, n = 2] | 4 log units of activity (1 unit is approximately 10-fold)
IEGPTLRQWLAARAIEGPTLRQWLAARA [TMP-(Gly)n-TMP, n = 0] | 4.5 log units of activity (1 unit is approximately 10-fold)
IEGPTLRQWLAARAGGGC([maleimide-mPEG 5 kDa])GGGGIEGPTLRQWLAARA [TMP-GGGC(PEG)GGGG-TMP (SEQ ID NO. 18)] | 5 log units of activity (1 unit is approximately 10-fold)
IEGPTLRQWLAARA [TMP monomer (SEQ ID NO: 1)] | 1 log units of activity (1 unit is approximately 10-fold)
IEGPTLRQWLAARAGPNGIEGPTLRQWLAARA [TMP-GPNG-TMP (SEQ ID NO. 10)] | 3 log units of activity (1 unit is approximately 10-fold)
IEGPTLRQWLAARAGGGGIEGPTLRQWLAARA [TMP-(Gly)n-TMP, n = 4] | 4 log units of activity (1 unit is approximately 10-fold)
IEGPTLRQWLAARAGIEGPTLRQWLAARA [TMP-(Gly)n-TMP, n = 1] | 4 log units of activity (1 unit is approximately 10-fold)
IEGPTLRQWLAARAGGGIEGPTLRQWLAARA [TMP-(Gly)n-TMP, n = 3] | 4 log units of activity (1 unit is approximately 10-fold)

Same assay, conditions: scale: log units of activity

Molecule | Relative Potency (EC50), proliferation of murine 32D cells transfected with human mpl receptor
TMP-(Gly)n-TMP, n = 9 (peptide) | 4
TMP-(Gly)n-TMP, n = 10 (peptide) | 4
TMP-(Gly)n-TMP, n = 14 (peptide) | 4
TPO (ligand) | 4

— US20050080014A1 (Amgen, published 2005)
